Laboratory results: the supplement of paper PMC10567573
± gives the standard deviation.

Experiment: protein stability index of a GFP-peptide fusion (GPS, HEK-293T) (PSI 1-6); higher = more stable
[1] = treatment: DMSO, c terminus: a fixed tail appended
[2] = treatment: MLN4924 1 uM, 8 h, c terminus: a fixed tail appended
[3] = treatment: DMSO, c terminus: native
[4] = treatment: MLN4924 1 uM, 8 h, c terminus: native
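Also: 24-mer peptide tiles fused after GFP, lentivirally expressed, FACS-sorted into six equal bins by GFP/DsRed ratio, decoded by Illumina sequencing, PSI is the read-weighted mean bin number.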

Sequence | protein stability index [1] | protein stability index [2] | protein stability index [3] | protein stability index [4]
SYLSLTSEDNTSFDRKKKSISLMY [SLA] | 2.94 ± 0.18 | 2.95 ± 0.25 | – | –
LWASQREKEVLRRERAVEWRERAV [ZBED2] | 3.15 ± 0.44 | 3.38 ± 0.11 | – | –
RLKKVENIKIWLSLRSYLKRRGPQ [PHTF1] | 2 ± 0.65 | 2.25 ± 0.64 | – | –
VNEKLPQREGTGKTVSLQIFSVLN [SMOC2] | 2.7 ± 0.37 | 2.84 ± 0.4 | – | –
RGCLHSHGLQEGKDLFTQRQNSAP [CDC25A] | 3.72 ± 0.36 | 3.62 ± 0.33 | – | –
DSVSVNDIDLSLYIPRDVDETGIT [ZC3H15] | 3.76 ± 0.15 | 4.36 ± 0.11 | – | –
DSCVLTGPDDSLWDKHACPAYVGP [TRIB3] | 3.65 ± 0.33 | 3.62 ± 0.19 | – | –
TSFSNYYRTWNVVVHDWLYSYVYQ [SOAT2] | 3.11 ± 0.27 | 3.01 ± 0.4 | – | –
KFLEICKLSGFMSKLVPAIQNAHK [TPRG1] | 2.27 ± 0.74 | 2.81 ± 1 | – | –
IEDAAEPKEPAPPNGSAAEPPTEA [PALM] | 5.54 ± 0.24 | 5.47 ± 0.22 | – | –
LQTPLDIRLKESINCQLSDPSSTK [TRIM14] | 4.62 ± 0.29 | 4.55 ± 0.34 | – | –
IRIKLDPCHPTVKNWRNFASKWGM [EDARADD] | 3.28 ± 0.61 | 2.58 ± 0.76 | – | –
FPALLSTGEFLKLPFERLAFVLSS [KLHL13] | 2.95 ± 0.74 | 3.08 ± 0.73 | – | –
QLEKPKPVKPVTFSTGIKMGQHIS [MNAT1] | 3.36 ± 0.15 | 3.44 ± 0.41 | – | –
EQCLPSLENSKYCRFNQDPEAVDE [ATE1] | 5.16 ± 0.45 | 5.16 ± 0.26 | – | –
KLTQRLEEMTQRMEALENRLRYR [MATN2] | – | – | 2.7 ± 0.51 | 2.79 ± 0.34
CLESTKLLADLKKCGDLECEALIN [MIA2] | 3 ± 0.32 | 3.25 ± 0.14 | – | –
GTLNREDLSRLVNCLTGEGEDTRL [CIB1] | 4.25 ± 0.32 | 4.48 ± 0.31 | – | –
PQIPVDRGSETTYESSADIAGDEG [TAF7L] | 5.46 ± 0.22 | 5.48 ± 0.32 | – | –
LEVKIRDWYQRQRPSEIKDYSPYF [KRT16] | 2.19 ± 0.2 | 2.24 ± 0.49 | – | –
PIVNISEVLGPLCLMLLMGTVHCQ [PHTF1] | 3.34 ± 0.24 | 3.17 ± 0.22 | – | –
VLTAVDGGTPARSGTTLISVIVLD [PCDHGC5] | 2.34 ± 0.47 | 2.26 ± 0.22 | – | –
YIESSTKVYDDMAFRYLSWILFPL [CLPTM1] | 2.73 ± 0.13 | 2.61 ± 0.47 | – | –

Sequence | protein stability index [1] | protein stability index [2] | protein stability index [3] | protein stability index [4]
RAMKIPFTNDKIINLPVEEFNELL [NFE2L1] | 2.87 ± 0.2 | 3.01 ± 0.67 | – | –
PLGVLQAIAMYFLPPSPRFLVMKG [SLC2A12] | 2.64 ± 0.98 | 2.88 ± 1.3 | – | –
TVDKCFGRKKYDIDPRNGIPKLTP [SPATS1] | 3.45 ± 0.36 | 3.51 ± 0.23 | – | –
IYNGGVEAVSTLLGAVAVFAVGYI [SLC19A2] | 2.37 ± 0.26 | – | – | –
QRYEHGRTLKSYLGLTNQSRRYNR [ZNF649] | 3.39 ± 0.21 | 3.59 ± 0.29 | – | –
AESHASKDVAIDMMDSRTSQQLQL [STX5] | 4.98 ± 0.11 | 4.89 ± 0.18 | – | –
GRAVDQDKVLRFAQQIRLHHFNSS [MYORG] | 2.51 ± 0.27 | 2.75 ± 0.34 | – | –
SFVYGAVPIGASIYVIGDLDTGTN [GAN] | 2.35 ± 0.32 | 2.29 ± 0.61 | – | –
EIIRKQVSATKAEAEKDGVKVPTT [UBE2R2] | 4.84 ± 0.37 | 4.7 ± 0.25 | – | –
RQRCMPEEDLQSQSETQGLEGAQA [MAGEA10] | 5.44 ± 0.28 | 5.44 ± 0.082 | – | –
RQMHLARFLRMLLRLADEFGVAVV [RAD51] | 2.55 ± 0.41 | 2.68 ± 0.28 | – | –
DMRNSATFKSFEDRVGTIKSKVVG [TPD52L2] | 3.24 ± 0.16 | 3.61 ± 0.23 | – | –
CDPGMTAFEPEALGNLVEGLDFHR [CAMK2A] | 4.17 ± 0.096 | 4.2 ± 0.19 | – | –
LTLAQGAGEEDPSGMVTIITGLPL [SMG5] | 2.98 ± 0.43 | 2.76 ± 0.44 | – | –
AEMAEDYPRYPDIHDLDLTLLNPR [CLCN6] | 4.05 ± 0.28 | 4.21 ± 0.25 | – | –
RRMAESLRIPEGPIDQGPAIGRVR [FUT8] | 4.22 ± 0.17 | 4.43 ± 0.18 | – | –
NVTRHQAECALNERGVEGDFLIRD [NCK2] | 4.35 ± 0.27 | 4.5 ± 0.31 | – | –
AQYDSWPHYPEYFQQPAPEYHQPQ [LOXL2] | 3.62 ± 0.48 | 3.8 ± 0.49 | – | –
RNVTGTPLTGDKDDEEVDTHFASQ [ADAMTSL2] | 5.5 ± 0.22 | 5.32 ± 0.27 | – | –
ALKEKEKASWSSLSMDEKVELYRI [COX4I1] | 3.65 ± 0.27 | 3.95 ± 0.23 | – | –
GCSAVSEPASESVVGALPAEHQFS [TRAF3IP2] | 4.38 ± 0.34 | 4.6 ± 0.27 | – | –
LWARGTWTQATGLGCALLAAHAVV [SOAT2] | 3.01 ± 0.11 | 3.2 ± 1.6 | – | –
VYMTEPIDEYCVQQLKEFDGKSLV [HSP90AB1] | 3.06 ± 0.15 | 3.29 ± 0.25 | – | –

Sequence | protein stability index [1] | protein stability index [2] | protein stability index [3] | protein stability index [4]
AQHKDRSTQLEMQLEKPKPVKPVT [MNAT1] | 4.71 ± 0.24 | 4.82 ± 0.36 | – | –
SVKIPVRNHGILMETHKELKPLLS [LYSMD4] | 2.86 ± 0.13 | 3.17 ± 0.36 | – | –
RKSSFAFYQAVRDLLPVWLLEDMR [ANKRD9] | 3.03 ± 0.99 | 2.21 ± 0.38 | – | –
EFPEARIFEETLNILIYETPRGPD [KCTD13] | 2.48 ± 0.15 | 2.5 ± 0.44 | – | –
IWAFLDVSFVERILKSQKERQCAL [FBXO39] | 2.41 ± 0.53 | 2.24 ± 0.17 | – | –
RAGTEPSDAIRVVNAVLTQIDQIK [TRIP13] | 3.37 ± 0.15 | 3.04 ± 0.27 | – | –
KPSFQSGGRRRPPASSRNRSPSGS [RBMY1A1] | 4.93 ± 0.33 | 5.35 ± 0.32 | – | –
EPDAADGPYDPNSVRISFAKGWGP [SMAD6] | 4.17 ± 0.13 | 4.19 ± 0.17 | – | –
YTFHARFGEVRPYFYLGGARGAGP [TRIM35] | 2.27 ± 0.083 | 2.28 ± 0.4 | – | –
YSSRTPGTPGTPSYPRTPHTPGTP [MAP2] | 4.25 ± 0.26 | 4.27 ± 0.2 | – | –
GVSRGVGFIRFDKRIEAEEAIKGL [ELAVL3] | 3.572 ± 0.035 | 4.05 ± 0.57 | – | –
THACREYLKNLPLLSKYCGYREDN [TPH1] | 2.22 ± 0.26 | 2.18 ± 0.41 | – | –
DLLNNKLVTLPVSFAQLKNLKWLD [LRRC59] | 2.24 ± 0.23 | 2.17 ± 0.31 | – | –
AEGDSWEEEGFGSSSPVKSPAAPY [WEE1] | 5.28 ± 0.13 | 5.19 ± 0.22 | – | –
KSAILVPSEKKVAIIRTPPKSPAT [MAP2] | 4.32 ± 0.14 | 4.41 ± 0.1 | – | –
LIKKYSDHLENVSKLVESGIQFMD [TRIM55] | 2.27 ± 0.18 | 2.66 ± 0.2 | – | –
RLASFDSSGKLICSRTTGYQILTL [GMCL1] | 2.63 ± 0.93 | 2.55 ± 0.19 | – | –
PFDGLLEERALLLGRMGKHEQALF [VPS39] | 2.59 ± 0.28 | 2.67 ± 0.37 | – | –
MKAAVDLKPTLTIIKTEKVDLELF [ETS1] | 2.46 ± 0.35 | 2.55 ± 0.32 | – | –
RLINHSKCGNCQTKLHDIDGVPHL [KMT5A] | 2.67 ± 0.45 | 2.64 ± 0.36 | – | –
FSLVGKRAISTSVCVRAHESVVKS [COX4I1] | 2.75 ± 0.14 | 2.94 ± 0.3 | – | –
SCQSFISWTGDGWEFKLSDPDEVA [ETS1] | 3.12 ± 0.13 | 3.06 ± 0.31 | – | –
VPMILVGNKCDLEDERVVGKEQGQ [RAP1B] | 4.56 ± 0.35 | 4.72 ± 0.39 | – | –

Sequence | protein stability index [1] | protein stability index [2] | protein stability index [3] | protein stability index [4]
PASGEVEASQLRRLNIKKDDEFFH [TMEM40] | 4.79 ± 0.1 | 4.78 ± 0.25 | – | –
LDMRRDHEEQLQRLKLLKDREVDA [FBF1] | 5.08 ± 0.21 | 4.91 ± 0.3 | – | –
SPVVAMTSRRSGVGLAVVNGQLMA [KLHL20] | 2.88 ± 0.36 | 2.95 ± 0.43 | – | –
AFGKICHMVSDGSWVVRVQAAKLL [INTS4] | 2.74 ± 0.49 | 2.88 ± 0.58 | – | –
LMAPTCVFLASKVEEFGVVSNTRL [CCNC] | 2.2 ± 0.34 | 2.21 ± 0.14 | – | –
LDNLLAFVCDIRPEIHENYRING [ATP6V1G1] | – | – | 2.27 ± 0.49 | 2.47 ± 0.21
GGGGTQRLPRAIGMSLAKELIFSA [AUH] | 2.54 ± 0.21 | 2.69 ± 0.58 | – | –
QAQIELRLLELMNQHDTEMKYYIV [DYRK1B] | 2.24 ± 0.23 | 2.49 ± 0.47 | – | –
YLLTVMAAAAKAFKHPSIRNPVSL [ADAMTS4] | 2.56 ± 0.62 | 2.15 ± 0.32 | – | –
SSGLQDVTGPDNGVRESETEQGFG [NFE2L1] | 5.6 ± 0.17 | 5.39 ± 0.35 | – | –
EIELQAQHNLRYSLENTLTESEAR [KRT33B] | 4.7 ± 0.2 | 4.48 ± 0.18 | – | –
SYTTTTTITAPPSRVLQNGGDKLE [SCD] | 4.85 ± 0.23 | 4.81 ± 0.29 | – | –
SEEAAVLQYASLVGQKCSERMLLF [ATE1] | 2.37 ± 0.4 | 2.19 ± 0.34 | – | –
RLRQLKVRNDSCVVHEDFREDILS [PKD2L1] | 3.47 ± 0.43 | 3.65 ± 0.43 | – | –
SSIGRLFGKKEKGRLIQLSRDGAT [PPFIA4] | 3.19 ± 0.48 | 3.38 ± 0.54 | – | –
GPPAPVGPPHARISQHGDPLLSNT [EMID1] | 4.37 ± 0.24 | 4.55 ± 0.72 | – | –
MPYISDKHPRQTLEVINLLRKHRE [KLHL20] | 2.86 ± 0.51 | 2.98 ± 0.26 | – | –
NISGHTNTNTLKVPECRLAEDLGN [SPOPL] | 3.53 ± 0.26 | 3.7 ± 0.19 | – | –
ENKDHSLERGRASLIFSLKNEVGG [TPH1] | 4.09 ± 0.18 | 3.82 ± 0.38 | – | –
RAYQYTTLTSVQLLDCFGIPVLMA [SLC35F2] | 3.13 ± 0.64 | 2.66 ± 0.85 | – | –
